The record followed here is patent US20200199214A1 (Hoffmann-La Roche, published 2020).

The target of assay [1] is T1, cynomolgus IL-1 beta (Sino Biological 90010-CNAE) (cynomolgus, UniProt P79182 117-268).
T1 sequence (looked up): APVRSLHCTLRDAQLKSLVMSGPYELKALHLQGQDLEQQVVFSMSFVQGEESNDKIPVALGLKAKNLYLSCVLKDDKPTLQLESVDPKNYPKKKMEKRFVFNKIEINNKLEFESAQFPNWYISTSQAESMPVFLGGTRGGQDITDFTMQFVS
Put plainly: SPR, Fab captured via anti-Fab antibody, cynomolgus IL-1beta injected, 1:1 Langmuir fit. On the procedure:
An anti-Fab capturing antibody (GE Healthcare 28958325) was immobilized to a Series S Sensor Chip C1 (GE Healthcare 29104990) using standard amine coupling chemistry resulting in a surface density of approximately 500 resonance units (RU). The bispecific anti-VEGF/anti-IL-1beta Fab fragment was captured to the surface with resulting capture levels of approximately 20 RU. A dilution series ranging from 0.74 to 60 nM (1:3 dilution) of either human IL-1 beta (PeproTech 200-01B) or cynomolgus IL-1 beta (Sino Biological 90010-CNAE) was injected for 90 s, dissociation was monitored for at least 600 s at a flow rate of 30 μl/min. The surface was regenerated by two consecutive injections of 10 mM Glycine pH 2.1 for 60 s each. Bulk refractive index differences were corrected by subtracting blank injections and by subtracting the response obtained from the control flow cell without captured bispecific anti-VEGF/anti-IL-1beta Fab fragment. Curve fitting was performed using the 1:1 Langmuir binding model within the Biacore evaluation software.
Binding kinetics to VEGF and IL-1beta for the candidate antibodies were assessed as described in Example 3 using the indicated bispecific anti-VEGF/anti-IL-1beta Fab fragments (amino acid sequence as illustrated in Table 3). For comparison, antigen binding kinetics of prior art anti-VEGF/anti-IL-1beta antibody 0032, a full length IgG antibody, as disclosed in WO2016/075034 are depicted.
For orientation: Surface plasmon resonance follows binding to a sensor surface in real time, without labels.

In assay [2] the target is T2, human VEGF121 (human, UniProt P15692-9 27-147).
T2 construct: No tag is stated for these preparations; Kept apart from VEGF121-His; also called HuVEGF121
T2 sequence (looked up): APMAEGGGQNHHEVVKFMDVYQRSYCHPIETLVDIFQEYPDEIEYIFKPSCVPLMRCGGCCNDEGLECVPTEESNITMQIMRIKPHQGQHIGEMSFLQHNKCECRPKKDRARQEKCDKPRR
Kind of assay: SPR competition: Fab preincubated with 50 nM VEGF121, injected over immobilised hVEGFR2 (competitor); in presence of IL-1beta. On the procedure: As running and dilution buffer, HBS-P+(10 mM HEPES, 150 mM NaCl pH 7.4, 0.05% Surfactant P20) was used.
For assessing VEGF-receptor binding inhibition, a final concentration of 200 nM of R07200394 or 400 nM antibody 0032 was preincubated with 50 nM VEGF121. For assessing IL-1beta-receptor binding inhibition, a final concentration of 200 nM of R07200394 or 200 nM antibody 0032 was with preincubated with 50 nM IL-1beta. Samples were diluted (1:2) in the corresponding 50 nM VEGF121 or IL-1beta solution.
The antibody/ligand mixtures were injected onto the VEGFR2 or IL-1R1 surface for 60 s at a flow rate of 5 μl/min. After a dissociation phase for 60 s, the VEGFR2 surface was regenerated by injecting 5 mM NaOH for 60 s, whereas the IL-1R1 surface was regenerated by injecting 10 mM Glycine pH 3.0 followed by 5 mM NaOH for 60 s each. Bulk refractive index differences were corrected by subtracting blank injections and by subtracting the response obtained from the blank control flow cell. For evaluation, the binding response 5 seconds after inject end was taken. The derived response in RU was transformed to a binding response relative to the initial signal corresponding to the ligand(s) without antibody. IC50 values were calculated using a 4 parameter logistic model (XLfit, ID Business Solutions Ltd.)

Assay [3] has as its target T2, human VEGF121. Kind of assay: competition ELISA: Fab preincubated with VEGF121, free VEGF121 bound to coated rhVEGFR-1-Fc detected; sheet title 'Competition ELISA VEGFR1-Fc, 8 pM VEGF121'. On the procedure: (§1) 96-well-Plates (Maxisorp Nunc-Immoplates) were coated with 50 μL/well rhVEGFR-1-Fc (R&D #321-FL-050) at a final concentration of 1 μg/ml in 200 mM NaHC0₃, pH 9.4 for 1 hour at room temperature.
(§2) Meanwhile, antibody Fab fragments of different concentrations were preincubated with VEGF for form an antibody Fab-VEGF premix as follows: A dilution series of antibody Fab fragment was prepared by adding 280 μl of a solution of antibody Fab fragments (409.6 nM antibody in PBST-1% BSA) into the wells of the first column of a round bottom 96-well PS plate. The individual wells of columns 2-12 of the same plate were filled with 140 μl PBST-1% BSA. Subsequently, 1:2 dilutions were performed by transferring 140 μl of the antibody solution into the next column, thorough mixing and proceed with transferring 140 μl of this diluted antibody solution to the next column. This is repeated until column 11. Excess of 140 μl were discarded so that all wells comprise 140 μl. Column 12 served as the control (blank). […] 50 μl of the dilution series of the respective antibody Fab fragment were added to the VEGF121, or VEGF165, respectively; mixed thoroughly and incubated for 1.5 hours at room temperature.
(§3) The rhVEGFR-1-Fc coated plates were washed two times with PBST and blocked for 45 min with 200 μl of 2% MPBST. After washing off the MPBST solution twice with PBST, 50 μl of the antibody Fab-VEGF premix were added to the plate and incubated for 1.5 hours at room temperature. Subsequently, the plates were washed twice with PBST. Then, 50 μl of a solution comprising biotinylated anti-VEGF antibody (R&D, BAF293; 1:2000 dilution in PBST) and SA-HRP (KPL, 14-30-00; 1:2000 dilution in PBST) was added and incubated for 30 min at room temperature. After 6× washing with PBST, 50 μl of TMB substrate solution (two-component HRP substrate (KPL, 34021); used at room temperature) was added and incubated for 30 min at room temperature. 50 μl of 1N H₂SO₄ was added and absorbance was read at 450 nm.

The target of another assay is T3, VEGF165 (UniProt P15692-4 27-191).
T3 construct: also called VEGF165 (Humanzyme, HZ-1153)
Put plainly: competition ELISA: Fab preincubated with VEGF165, free VEGF165 bound to coated rhVEGFR-1-Fc detected; sheet title 'Competition ELISA VEGFR1-Fc, 8 pM VEGF165'. How it is done:
as §1, §2, §3
(In general: In an ELISA, binding on a coated surface is turned into a signal by an enzyme label.)

B1: bispecific anti-VEGF/anti-IL-1beta Fab fragment RO7200394 (Fab, V domains shown)
VH: DEQLVESGGGLVKPGGSLRLSCAAEGMVFKWNDMSWVRQAPGKGLEWVGSISKKGDHKYLNTKFIGRFTISRDNEKDTLYLQMNSLRAEDTAVYYCAKDVGFFDIWGQGTLVTVSS
VL: AIYMHQEPSSLSASVGDRVTITCHGSYWLSSLVAWYQQKPGKAPKLLIYDAKYKHLGVPSRFSGSKEDQEFTLTISSLQPEDFATYYCQQYRYHPYTFGHGTKVEIKR
notes: same variable domains as 1HVL12.85; also called R07200394
With B1, in assay [1], the Kd – broadly, the free concentration of one partner at which half of the binding sites on the other are occupied at equilibrium, for simple one-to-one binding – came to 0.027 nM; the koff (usually a measure of how fast the partners let go of each other) worked out at 7.94e-05 s⁻¹; the kon – broadly, the rate constant with which the complex forms – worked out at 2.97e+06 M⁻¹ s⁻¹; the t½ (commonly the time in which the quantity being followed falls by half) worked out at 2.43 h. For the same molecule, the IC50 (usually the midpoint of a concentration-inhibition curve) with human VEGF121 [2] stood at 39 nM. Further, the “IC50 (read off the curve)” value with human VEGF121 [3] was around 0.04 nM. Further, the “IC50 (read off the curve)” value in the assay with VEGF165 was around 0.09 nM.
